± gives the standard deviation of the averaged measurements.
Experiment: total protein half-life in vivo (active degradation + dilution); higher = more stable protein
[1] = E. coli NCM3722 delta-clpP delta-lon delta-hslV, growth: N-lim chemostat, doubling time 6 h
[2] = E. coli NCM3722 delta-clpP, growth: N-lim chemostat, doubling time 6 h
[3] = E. coli NCM3722 delta-hslV, growth: N-lim chemostat, doubling time 6 h
[4] = E. coli NCM3722 delta-lon, growth: N-lim chemostat, doubling time 6 h
[5] = E. coli NCM3722 delta-smpB, growth: N-lim chemostat, doubling time 6 h
[6] = wild type E. coli NCM3722, growth: C-lim chemostat, doubling time 3 h
[7] = wild type E. coli NCM3722, growth: C-lim chemostat, doubling time 6 h
[8] = wild type E. coli NCM3722, growth: C-lim chemostat, doubling time 12 h
[9] = wild type E. coli NCM3722, growth: N-lim chemostat, doubling time 6 h
[10] = wild type E. coli NCM3722, growth: N-lim chemostat, doubling time 12 h
[11] = wild type E. coli NCM3722, growth: P-lim chemostat, doubling time 6 h
[12] = wild type E. coli NCM3722, growth: P-lim chemostat, doubling time 12 h

Sequence | total protein half-life in vivo [1] | total protein half-life in vivo [2] | total protein half-life in vivo [3] | total protein half-life in vivo [4] | total protein half-life in vivo [5] | total protein half-life in vivo [6] | total protein half-life in vivo [7] | total protein half-life in vivo [8] | total protein half-life in vivo [9] | total protein half-life in vivo [10] | total protein half-life in vivo [11] | total protein half-life in vivo [12]
MATDSTQCVKKSRGRPKVFDRDAALDKAMKLFWQHGYEATSLADLVEATGAKAPTLYAEFTNKEGLFRAVLDRYIDRFAAKHEAQLFCEEKSVESALADYFAAIANCFTSKDTPAGCFMINNCTTLSPDSGDIANTLKSRHAMQERTLQQFLCQRQARGEIPPHCDVTHLAEFLNCIIQGMSISAREGASLEKLMQIAGTTLRLWPELVK | 5.38 ± 0.14 h | 3.65 ± 0.34 h | 1.46 ± 0.015 h | 2.04 ± 0.17 h | 1.57 ± 0.097 h | 1.69 ± 0.081 h | 2.99 ± 0.34 h | 4.6 ± 0.59 h | 1.78 ± 0.021 h | 2.32 ± 0.54 h | 2.49 ± 0.15 h | 3.73 ± 1.1 h
MATDTLTHATAHAHEHGHHDAGGTKIFGFWIYLMSDCILFSILFATYAVLVNGTAGGPTGKDIFELPFVLVETFLLLFSSITYGMAAIAMYKNNKSQVISWLALTWLFGAGFIGMEIYEFHHLIVNGMGPDRSGFLSAFFALVGTHGLHVTSGLIWMAVLMVQIARRGLTSTNRTRIMCLSLFWHFLDVVWICVFTVVYLMGAM [P0ABJ3] |  |  |  |  |  |  |  | 13.9 h |  |  |  | 
MATFSLGKHPHVELCDLLKLEGWSESGAQAKIAIAEGQVKVDGAVETRKRCKIVAGQTVSFAGHSVQVVA [P0AAS7] | 4.09 ± 0.36 h | 3.39 ± 0.29 h | 2.72 ± 0.6 h | 4.18 ± 1.2 h | 2.3 ± 0.15 h | 2.4 ± 0.59 h | 4 ± 0.91 h | 4.46 ± 0.44 h | 2.71 ± 0.057 h | 3.68 ± 0.15 h | 1.97 ± 0.26 h | 3.576 ± 0.012 h
MATGKSCSRWFAPLAALLMVVSLSGCFDKEGDQRKAFIDFLQNTVMRSGERLPTLTADQKKQFGPFVSDYAILYGYSQQVNQAMDSGLRPVVDSVNAIRVPQDYVTQSGPLREMNGSLGVLAQQLQNAKLQADAAHSALKQSDDLKPVFDQAFTKVVTTPADALQPLIPAAQTFTQQLVMVGDYIAQQGTQVSFVANGIQFPTSQQASEYNKLIAPLPAQHQAFNQAWTTAVTATQ [P0ADK0] | 6.1 ± 0.091 h |  | 6.34 ± 0.47 h | 6.34 ± 0.28 h | 6.1 ± 0.9 h | 3.007 ± 0.025 h | 6.13 ± 0.24 h | 13.5 ± 1.5 h | 5.79 ± 0.17 h | 12.5 ± 0.65 h | 5.88 ± 0.16 h | 12.5 ± 1.1 h
MATIKDVARLAGVSVATVSRVINNSPKASEASRLAVHSAMESLSYHPNANARALAQQTTETVGLVVGDVSDPFFGAMVKAVEQVAYHTGNFLLIGNGYHNEQKERQAIEQLIRHRCAALVVHAKMIPDADLASLMKQMPGMVLINRILPGFENRCIALDDRYGAWLATRHLIQQGHTRIGYLCSNHSISDAEDRLQGYYDALAESGIAANDRLVTFGEPDESGGEQAMTELLGRGRNFTAVACYNDSMAAGAMGVLNDNGIDVPGEISLIGFDDVLVSRYVRPRLTTVRYPIVTMATQAAELALALADNRPLPEITNVFSPTLVRRHSVSTPSLEASHHATSD | 5.91 ± 1.8 h |  | 3.24 ± 0.35 h | 2.72 ± 0.32 h | 2.572 ± 0.0072 h | 2.29 ± 0.2 h | 4.35 ± 0.17 h | 7.06 ± 0.13 h | 2.8 ± 0.21 h | 3.77 ± 0.39 h | 3.26 ± 0.047 h | 6.28 ± 0.3 h
MATLTTTQTSPSLLGGVVIIGGTIIGAGMFSLPVVMSGAWFFWSMAALIFTWFCMLHSGLMILEANLNYRIGSSFDTITKDLLGKGWNVVNGISIAFVLYILTYAYISASGSILHHTFAEMSLNVPARAAGFGFALLVAFVVWLSTKAVSRMTAIVLGAKVITFFLTFGSLLGHVQPATLFNVAESNASYAPYLLMTLPFCLASFGYHGNVPSLMKYYGKDPKTIVKCLVYGTLMALALYTIWLLATMGNIPRPEFIGIAEKGGNIDVLVQALSGVLNSRSLDLLLVVFSNFAVASSFLGVTLGLFDYLADLFGFDDSAVGRLKTALLTFAPPVVGGLLFPNGFLYAIGYAGLAATIWAAIVPALLARASRKRFGSPKFRVWGGKPMIALILVFGVGNALVHILSSFNLLPVYQ [P0AAD2] | 2.1 h |  | 0.779 h |  | 0.897 h | 1.97 ± 0.16 h |  |  |  |  |  | 
MATRIEFHKHGGPEVLQAVEFTPADPAENEIQVENKAIGINFIDTYIRSGLYPPPSLPSGLGTEAAGIVSKVGSGVKHIKAGDRVVYAQSALGAYSSVHNIIADKAAILPAAISFEQAAASFLKGLTVYYLLRKTYEIKPDEQFLFHAAAGGVGLIACQWAKALGAKLIGTVGTAQKAQSALKAGAWQVINYREEDLVERLKEITGGKKVRVVYDSVGRDTWERSLDCLQRRGLMVSFGNSSGAVTGVNLGILNQKGSLYVTRPSLQGYITTREELTEASNELFSLIASGVIKVDVAEQQKYPLKDAQRAHEILESRATQGSSLLIP | 6.37 ± 0.98 h | 5.12 ± 0.23 h | 5.73 ± 0.15 h | 5.78 ± 0.78 h | 5.28 ± 0.14 h | 3.13 ± 0.2 h | 5.98 ± 0.24 h | 9.65 ± 0.38 h | 5.5 ± 0.41 h | 10.2 ± 0.47 h | 5.84 ± 0.14 h | 12.63 ± 0.043 h
MATVNKQAIAAAFGRAAAHYEQHADLQRQSADALLAMLPQRKYTHVLDAGCGPGWMSRHWRERHAQVTALDLSPPMLVQARQKDAADHYLAGDIESLPLATATFDLAWSNLAVQWCGNLSTALRELYRVVRPKGVVAFTTLVQGSLPELHQAWQAVDERPHANRFLPPDEIEQSLNGVHYQHHIQPITLWFDDALSAMRSLKGIGATHLHEGRDPRILTRSQLQRLQLAWPQQQGRYPLTYHLFLGVIARE | 4.79 ± 0.22 h | 2.85 ± 0.37 h |  |  | 0.556 h |  |  |  |  | 1.13 h |  | 
MATYYSNDFRAGLKIMLDGEPYAVEASEFVKPGKGQAFARVKLRRLLTGTRVEKTFKSTDSAEGADVVDMNLTYLYNDGEFWHFMNNETFEQLSADAKAIGDNAKWLLDQAECIVTLWNGQPISVTPPNFVELEIVDTDPGLKGDTAGTGGKPATLSTGAVVKVPLFVQIGEVIKVDTRSGEYVSRVK [P0A6N4] |  | 4.46 ± 0.85 h | 4.41 ± 0.21 h | 5.35 ± 0.54 h | 4.285 ± 0.022 h | 2.91 ± 0.13 h | 4.775 ± 0.023 h | 8.29 ± 0.57 h | 4.24 ± 0.074 h | 5.76 ± 0.19 h | 4.32 ± 0.1 h | 8.07 ± 0.47 h
